Where two headings read alike, the source gives them in different places.
What was measured:
GST-Rev = GST-Rev (Human immunodeficiency virus type 1 group M subtype B, UniProt P04618); conditions: eluted with glutathione, immunoblot
Description: GXT-Rev was produced in bacteria and loaded onto an agarose-glutathion column. […] After rinsing, the proteins were eluted with glutathione. An aliquot of the feed, rinse and elution fractions was analyzed by immunoblot for GST-Rev (top graph) and for SHP using antibodies against GST or against FLAG respectively.
The SHPR activity was evaluated using the reporter construct pDM128 which included the coding sequence CAT and an RRE motif in an intron. Expression of Rev stimulated expression of CAT allowing an unspliced messenger to be exported to the cytoplasm. […] It was verified whether this inhibition was in fact directly correlated with a protein-protein interaction as predicted. To this end, both Rev and the SHPRs were produced in bacteria. […] Rev was expressed in fusion with GST and coupled to glutathione-agarose beads.

Jurkat cells = experiment: intracellular entry, immunofluorescence in Jurkat cells; format: cell-based; conditions: 2 μM for one hour, analyzed 24 h later
Description: Light transmission and fluorescence images are shown for representative cells.
The immunofluorescence tests were carried out with a primary anti-FLAG antibody in a dilution of 1:500 incubated for 2 hours and a secondary antibody coupled to the Alexa Fluor 488 fluorophore (Molecular Probes) diluted 1:1000, incubated for one hour.
To confirm that SHPs do indeed enter the cell, immunofluorescence analyses were also carried out. Jurkat cells were incubated with 1 μM of SHP for 4 hours and after washing twice, the cells were cultured for 24 hours.

HIV-1-LA1 = experiment: antiviral test in PHA-P activated PBMC, RT activity; format: cell-based; conditions: for anti-HIV activity, replication of HIV-1-LA1: PBMC activated by PHA-P, 7th day, in words; for Percentage inhibition, Mean: HIV-1 LA1, day 7; for reduction of HIV-1 replication: PBMC activated with PHA-P
Description: (§1) These viruses were amplified in vitro with umbilical blood mononuclear cells (UBMC) activated with PHA-P. The cell-free supernatant was centrifuged at […] for 10 minutes to eliminate soluble factors, and the residue was re-suspended in cell culture medium. Virus stocks were titrated using PBMC cells activated with PHA-P and 50% tissue culture infectious doses (TCID50) were calculated using Kärber's formula.
PBMC cells were pre-treated for 30 minutes by 5 concentrations of each molecule and infected with 75 TCID50 of the HIV-1-LA1 strain. AZT (1.6, 8, 40, 200 and 1000 nM) and indinavir (1.6, 8, 40, 200 and 1000 nM) were used as the control. […] The molecules were maintained throughout culture, and the cellular supernatant was harvested 7 days post infection and stored at −20° C. to measure viral replication by reverse transcriptase activity (RT) assay.
(§2) HIV replication was analyzed by assaying the RT activity in the supernatants from cell cultures using the RetroSys RT kit (Innovagen). The experiments were carried out 3 times and the results are expressed as the mean of the RT activity±the standard deviation (SD).
In a last step, it was examined whether SHPs were actually capable of inhibiting HIV-1 replication. This was carried out in PBMCs activated by PHA-P and in MDMs. […] The effects of different SHPs was thus tested at this time. AZT and indinavir were used as controls.

HIV-1/Ba-L = experiment: antiviral test in monocyte-derived macrophages (MDM), RT activity; format: cell-based; conditions: for inhibition of HIV replication: 2 μM on day 14; for Percentage inhibition, Mean / ED70 / ED90: MDMs, HIV-1/Ba-L
Description: as §1
The MDM cells were pre-treated for 30 minutes in 6 concentrations of different molecules and infected with 30000 TCID50 of the HIV-1/Ba-L strain. AZT (0.8, 4, 20, 100 and 500 nM) and indinavir (0.8, 4, 20, 100 and 500 nM) were used as the control. […] The molecules were maintained for 7 days post infection, and the cellular supernatant was harvested 7, 14 and 21 days post infection and stored at −20° C. to measure viral replication by reverse transcriptase activity (RT) assay.
as §2

Tat = biological target: T1, Tat (Human immunodeficiency virus type 1 group M subtype B, UniProt P04608); experiment: Tat functional test, LTR HIV-CAT reporter in HeLa cells; format: cell-based, HIV-1; conditions: higher concentrations
T1 construct: expressed in transfected cells; host or cells: HeLa
T1 sequence (P04608 whole entry): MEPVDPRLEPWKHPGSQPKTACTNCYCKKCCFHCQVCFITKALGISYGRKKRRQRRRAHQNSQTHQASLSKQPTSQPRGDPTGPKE
Description: The effect of the 4 SHPTs on the transactivation of the HIV-1 promoter by Tat was evaluated by transitory expression experiments in HeLa cells.

Rev/RRE association = Rev/RRE association (Human immunodeficiency virus type 1 group M subtype B, UniProt P04618); conditions: Rev produced in bacteria, RRE RNA probe
Description: To this end, gel retard experiments were carried out with a RNA molecule corresponding to the RRE element as the probe. The Rev protein produced in bacteria binds to this RNA and induces a non denaturing polyacrylamide gel migration retardation.

Rev = Rev (Human immunodeficiency virus type 1 group M subtype B, UniProt P04618); conditions: HeLa cells
Description: This type of indicative construct allowed an evaluation of the effect of Rev, which by causing transport towards the cytoplasm of the non spliced RNA, allowed expression of the CAT enzyme.
The CAT activity was measured using the CAT ELISA kit (Roche).
These various mutants were tested using a transitory expression system consisting of transfecting HeLa cells of the reporter plasmid having the CAT sequence associated with the RRE in the intronic position with expression vectors for the Rev protein and the SHPR protein. […] The separation between the two values was less than 20%.
These vectors were transfected with the reporter plasmid pDM128 and the expression vector Rev as described in the above sections (and in Roisin et al, JBC (2004) 279: 9208). The quantity of CAT protein is expressed as a % of that corresponding to transfection of parental SHPR. A value of more than 100 thus indicates a negative effect on the inhibiting power of SHPR and a lower value indicates an increase in this inhibiting property.

[1] = system: PBMCs (resting and activated lymphocytes); experiment: penetration into PBMCs and stability in medium, anti-FLAG immunoblot; format: cell-based, human
Description: Mononuclear cells were prepared from peripheral blood, either directly (A) or after activation with PHA (phytohemagglutinin) and IL-2 (interleukin 2) (B), then incubated with 2 μM of SHPR-190. At the times indicated after addition of the interacting peptide, an aliquot of supernatant was analyzed by immunoblot using antibodies against FLAG (A, lines 1 to 4; B, lines 1 to 3). The cells were collected and lysed in RIPA buffer. The extract obtained was analyzed by immunoblot as described for the supernatant (A, lines 5 and 6; B, line 4). In portion A, the exposure times were different between lines 5 and 6 (30 s) and lines 1 to 4 (5 s).
To evaluate the capacity of SHPs to penetrate into cells, PBMCs were cultivated in medium supplemented with 2 μM of SHPR-190. At different times, an aliquot of supernatant was removed and the cells were collected. After washing several times, the cells were lysed in RIPA buffer and the supernatant as well as that which was extracted was analyzed by immunoblot using an antibody directed against the FLAG eiptope, which is present at the N-terminal end of SHP produced in bacteria.

B1: SHPT-8: SUMO-1-heptapeptide-Tat PTD protein selected against Tat; heptapeptide Phe Thr Met Arg Gly Val Asp (SEQ ID NO: 38) (protein)
chain: MSDQEAKPSTEDLGDKKEGEYIKLKVIGQDSSEIHFKVKMTTHLKKLKESYCQRQGVPMNSLRFLFEGQRIADNHTPKELGMEEEDVIEVYQEQTARPPNPKKEIELGGGGSFTMRGVDPGRKKRRQRRRG
With B1 the “co-elution with GST-Rev” value (GST-Rev) was “no SHPT was present in fractions containing GST-Rev”, the “co-elution with GST-Rev” value (GST-Rev; listed as SHPR-8) was “did not bind to the protein on the column” and the “immunofluorescence with antibody against FLAG” value (Jurkat cells) was “diffuse fluorescence”. For the same molecule, the “anti-HIV activity, replication of HIV-1-LA1” value (HIV-1-LA1) was “did not have any anti-HIV activity”, the “Percentage inhibition, Mean” value (HIV-1-LA1; PBMCs, Dose 31 (nM)) was 0% and the “Percentage inhibition, Mean” value (HIV-1-LA1; PBMCs, Dose 62.5 (nM)) was 0%. For the same molecule, the “Percentage inhibition, Mean” value (HIV-1-LA1; PBMCs, Dose 125 (nM)) was 0%, the “Percentage inhibition, Mean” value (HIV-1-LA1; PBMCs, Dose 250 (nM)) was 0% and the “Percentage inhibition, Mean” value (HIV-1-LA1; PBMCs, Dose 500 (nM)) was 0%. For the same molecule, the “Percentage inhibition, Mean” value (HIV-1-LA1; PBMCs, Dose 1000 (nM)) was 0%, the “Percentage inhibition, Mean” value (HIV-1-LA1; PBMCs, Dose 2000 (nM)) was 0% and the “inhibition of HIV replication” value (HIV-1/Ba-L; MDM) was 69±6%. For the same molecule, the “Percentage inhibition, Mean” value (HIV-1/Ba-L; Day 7, dose 62.5 (nM)) was 5%, the “Percentage inhibition, Mean” value (HIV-1/Ba-L; Day 7, dose 125 (nM)) was 39% and the “Percentage inhibition, Mean” value (HIV-1/Ba-L; Day 7, dose 250 (nM)) was 78%. For the same molecule, the “Percentage inhibition, Mean” value (HIV-1/Ba-L; Day 7, dose 500 (nM)) was 78%, the “Percentage inhibition, Mean” value (HIV-1/Ba-L; Day 7, dose 1000 (nM)) was 70% and the “Percentage inhibition, Mean” value (HIV-1/Ba-L; Day 7, dose 2000 (nM)) was 84%. The ED70 (HIV-1/Ba-L; Day 14) was 2050 nM, the ED90 (HIV-1/Ba-L; Day 14) was 5500 nM and the “Percentage inhibition, Mean” value (HIV-1/Ba-L; Day 14, dose 62.5 (nM)) was 0%. The “Percentage inhibition, Mean” value (HIV-1/Ba-L; Day 14, dose 125 (nM)) was 2%, the “Percentage inhibition, Mean” value (HIV-1/Ba-L; Day 14, dose 250 (nM)) was 55% and the “Percentage inhibition, Mean” value (HIV-1/Ba-L; Day 14, dose 500 (nM)) was 50%. For the same molecule, the “Percentage inhibition, Mean” value (HIV-1/Ba-L; Day 14, dose 1000 (nM)) was 46%, the “Percentage inhibition, Mean” value (HIV-1/Ba-L; Day 14, dose 2000 (nM)) was 69% and the “Percentage inhibition, Mean” value (HIV-1/Ba-L; Day 21, dose 62.5 (nM)) was 0%. For the same molecule, the “Percentage inhibition, Mean” value (HIV-1/Ba-L; Day 21, dose 125 (nM)) was 5%, the “Percentage inhibition, Mean” value (HIV-1/Ba-L; Day 21, dose 250 (nM)) was 37% and the “Percentage inhibition, Mean” value (HIV-1/Ba-L; Day 21, dose 500 (nM)) was 21%. For the same molecule, the “Percentage inhibition, Mean” value (HIV-1/Ba-L; Day 21, dose 1000 (nM)) was 20%, the “Percentage inhibition, Mean” value (HIV-1/Ba-L; Day 21, dose 2000 (nM)) was 59% and the “Tat transactivation of the HIV-1 promoter” value (Tat) was “slight reduction in transactivation”. For the same molecule, the “effect on Rev/RRE association (gel retardation)” value (Rev/RRE association) was “no particular effect”.

B2: SHPR-190: SUMO-1-heptapeptide-Tat PTD protein against Rev; heptapeptide Asn Trp Leu Cys Cys Leu Asn (SEQ ID NO: 3) (protein)
chain: MSDQEAKPSTEDLGDKKEGEYIKLKVIGQDSSEIHFKVKMTTHLKKLKESYCQRQGVPMNSLRFLFEGQRIADNHTPKELGMEEEDVIEVYQEQTARPPNPKKEIELGGGGSNWLCCLNPGRKKRRQRRRG
B2 was tested, and the “inhibition of the function of Rev (CAT from pDM128)” value (Rev) was “effective inhibitors of the function of Rev”, the “stability in the culture medium” value ([1]; 2 μM in PBMC culture supernatant) was “stable in the culture medium” and the “presence inside the cell” value ([1]; 2 μM, resting and activated lymphocytes) was “a fraction of the protein was present inside the cell”. For the same molecule, the intracellular concentration ([1]; external concentration of 2 μM, lymphocyte assumed a sphere 12μ in diameter) was 15 µM, the “immunofluorescence with antibody against FLAG” value (Jurkat cells) was “diffuse fluorescence” and the “anti-HIV activity, replication of HIV-1-LA1” value (HIV-1-LA1) was “reduced replication”. The “reduction of HIV-1 replication” value (HIV-1-LA1; 1 μM) was 80±7%, the “reduction of HIV-1 replication” value (HIV-1-LA1; 2 μM) was 100% and the ED70 (HIV-1-LA1; PBMCs, HIV-1-LA1, 7th day) was 720 nM. For the same molecule, the ED90 (HIV-1-LA1; PBMCs, HIV-1-LA1, 7th day) was 927 nM, the “Percentage inhibition, Mean” value (HIV-1-LA1; PBMCs, Dose 31 (nM)) was 0% and the “Percentage inhibition, Mean” value (HIV-1-LA1; PBMCs, Dose 62.5 (nM)) was 0%. For the same molecule, the “Percentage inhibition, Mean” value (HIV-1-LA1; PBMCs, Dose 125 (nM)) was 0%, the “Percentage inhibition, Mean” value (HIV-1-LA1; PBMCs, Dose 250 (nM)) was 0% and the “Percentage inhibition, Mean” value (HIV-1-LA1; PBMCs, Dose 500 (nM)) was 38%. For the same molecule, the “Percentage inhibition, Mean” value (HIV-1-LA1; PBMCs, Dose 1000 (nM)) was 80%, the “Percentage inhibition, Mean” value (HIV-1-LA1; PBMCs, Dose 2000 (nM)) was 100% and the “inhibition of HIV replication” value (HIV-1/Ba-L; MDM) was 92±2%. For the same molecule, the “anti-HIV activity, HIV-1/Ba-L replication” value (HIV-1/Ba-L; MDM, in words) was “dose-dependent”, the “Percentage inhibition, Mean” value (HIV-1/Ba-L; Day 7, dose 62.5 (nM)) was 0% and the “Percentage inhibition, Mean” value (HIV-1/Ba-L; Day 7, dose 125 (nM)) was 34%. For the same molecule, the “Percentage inhibition, Mean” value (HIV-1/Ba-L; Day 7, dose 250 (nM)) was 50%, the “Percentage inhibition, Mean” value (HIV-1/Ba-L; Day 7, dose 500 (nM)) was 89% and the “Percentage inhibition, Mean” value (HIV-1/Ba-L; Day 7, dose 1000 (nM)) was 94%. The “Percentage inhibition, Mean” value (HIV-1/Ba-L; Day 7, dose 2000 (nM)) was 99%, the ED70 (HIV-1/Ba-L; Day 14) was 1040 nM and the ED90 (HIV-1/Ba-L; Day 14) was 1450 nM. For the same molecule, the “Percentage inhibition, Mean” value (HIV-1/Ba-L; Day 14, dose 62.5 (nM)) was 0%, the “Percentage inhibition, Mean” value (HIV-1/Ba-L; Day 14, dose 125 (nM)) was 0% and the “Percentage inhibition, Mean” value (HIV-1/Ba-L; Day 14, dose 250 (nM)) was 0%. For the same molecule, the “Percentage inhibition, Mean” value (HIV-1/Ba-L; Day 14, dose 500 (nM)) was 66%, the “Percentage inhibition, Mean” value (HIV-1/Ba-L; Day 14, dose 1000 (nM)) was 70% and the “Percentage inhibition, Mean” value (HIV-1/Ba-L; Day 14, dose 2000 (nM)) was 92%. The ED70 (HIV-1/Ba-L; Day 21) was greater than 2000 nM, the ED90 (HIV-1/Ba-L; Day 21) was greater than 2000 nM and the “Percentage inhibition, Mean” value (HIV-1/Ba-L; Day 21, dose 62.5 (nM)) was 0%. For the same molecule, the “Percentage inhibition, Mean” value (HIV-1/Ba-L; Day 21, dose 125 (nM)) was 0%, the “Percentage inhibition, Mean” value (HIV-1/Ba-L; Day 21, dose 250 (nM)) was 0% and the “Percentage inhibition, Mean” value (HIV-1/Ba-L; Day 21, dose 500 (nM)) was 28%. For the same molecule, the “Percentage inhibition, Mean” value (HIV-1/Ba-L; Day 21, dose 1000 (nM)) was 50%, the “Percentage inhibition, Mean” value (HIV-1/Ba-L; Day 21, dose 2000 (nM)) was 60% and the “effect on Rev/RRE association (gel retardation)” value (Rev/RRE association) was “did not inhibit this association”.

From US7709606B2, “Interacting polypeptide comprising a heptapeptide pattern and a cellular penetration domain” (Ecole Normale Superieure de Lyon, priority 2003, dated 2010)
